Measurements: US10947289B2, “Glyco-modified atrial natriuretic peptide” (priority 2013, dated 2021)

What was measured:
[1] = Detection of test substance in rat plasma by LC-MS/MS (Test Example 3); type: in vivo; conditions: rat plasma, 100 nmol/kg i.v., LC-MS/MS; time at which the test substance was finally detected
In short: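 Jugular blood drawn before and 15–240 min after dosing; plasma spiked with stable-isotope hANP internal standard and AcOH/water/DMSO solvent, then passed through a 50K filter with the 3K-retained fraction analysed by LC-MS/MS. Value is the last time point at which test substance was detected.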

human GC-A = target: T1, human GC-A (Homo sapiens, UniProt P16066); assay: cGMP elevating activity in CHO/human GC-A cells (Test Example 1); type: cell-based
T1 construct: expressed in transfected cells; host or cells: CHO cells
T1 sequence (P16066 33-1061): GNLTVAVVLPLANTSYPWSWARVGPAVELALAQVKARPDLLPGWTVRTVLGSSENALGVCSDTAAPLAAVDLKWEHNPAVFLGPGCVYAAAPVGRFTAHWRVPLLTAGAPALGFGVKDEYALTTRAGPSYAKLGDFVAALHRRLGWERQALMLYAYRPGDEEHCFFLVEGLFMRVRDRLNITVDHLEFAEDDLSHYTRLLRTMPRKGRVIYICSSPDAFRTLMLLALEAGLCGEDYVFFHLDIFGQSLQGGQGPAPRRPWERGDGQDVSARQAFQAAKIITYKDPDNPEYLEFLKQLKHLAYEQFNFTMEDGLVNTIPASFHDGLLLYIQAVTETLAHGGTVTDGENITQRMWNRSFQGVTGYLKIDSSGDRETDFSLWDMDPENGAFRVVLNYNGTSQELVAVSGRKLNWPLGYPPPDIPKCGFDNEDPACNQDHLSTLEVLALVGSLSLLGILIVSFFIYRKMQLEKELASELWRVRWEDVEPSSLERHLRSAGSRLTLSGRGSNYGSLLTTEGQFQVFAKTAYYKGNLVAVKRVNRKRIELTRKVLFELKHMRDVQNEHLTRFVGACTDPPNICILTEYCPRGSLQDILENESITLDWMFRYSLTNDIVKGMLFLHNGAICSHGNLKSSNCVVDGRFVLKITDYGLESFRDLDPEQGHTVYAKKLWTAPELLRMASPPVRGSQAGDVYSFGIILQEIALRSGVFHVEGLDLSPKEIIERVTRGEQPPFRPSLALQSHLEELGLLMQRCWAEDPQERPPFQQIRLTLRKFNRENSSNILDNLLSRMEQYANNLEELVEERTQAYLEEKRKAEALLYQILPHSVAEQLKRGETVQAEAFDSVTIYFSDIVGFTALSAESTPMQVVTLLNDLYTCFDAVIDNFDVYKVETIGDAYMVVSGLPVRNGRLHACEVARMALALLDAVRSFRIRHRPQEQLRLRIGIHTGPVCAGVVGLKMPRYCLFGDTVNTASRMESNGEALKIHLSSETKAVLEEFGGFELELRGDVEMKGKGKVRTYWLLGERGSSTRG
In short: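 CHO cells stably expressing human GC-A, pre-incubated 10 min at room temperature in 1.6 mM IBMX/KRB, then exposed to test peptide 15 min in CO2 incubator. Lysate cGMP measured by HTRF. Activity (T/C) scaled so solvent-only = 0 and 1 nM ANP = 1.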

SMILES: CC[C@H](C)[C@@H]1NC(=O)[C@H](CCCNC(=N)N)NC(=O)[C@H](CC(=O)O)NC(=O)[C@H](CCSC)NC(=O)[C@H](CCCNC(=N)N)NC(=O)CNC(=O)CNC(=O)[C@H](Cc2ccccc2)NC(=O)[C@@H](NC(=O)[C@H](CO)NC(=O)[C@H](CO)NC(=O)[C@H](CCCNC(=N)N)NC(=O)[C@H](CCCNC(=N)N)NC(=O)[C@H](CC(C)C)NC(=O)[C@H](CO)NC(=O)CCOCCOCCOCCOCCNC(=O)[C@H](CC(=O)N[C@@H]2O[C@H](CO)[C@@H](O[C@@H]3O[C@H](CO)[C@@H](O[C@@H]4O[C@H](CO[C@H]5O[C@H](CO)[C@@H](O)[C@H](O)[C@@H]5O[C@@H]5O[C@H](CO)[C@@H](O[C@@H]6O[C@H](CO[C@]7(C(=O)O)C[C@H](O)[C@@H](NC(C)=O)[C@H]([C@H](O)[C@H](O)CO)O7)[C@H](O)[C@H](O)[C@H]6O)[C@H](O)[C@H]5NC(C)=O)[C@@H](O)[C@H](O[C@H]5O[C@H](CO)[C@@H](O)[C@H](O)[C@@H]5O[C@@H]5O[C@H](CO)[C@@H](O[C@@H]6O[C@H](CO[C@]7(C(=O)O)C[C@H](O)[C@@H](NC(C)=O)[C@H]([C@H](O)[C@H](O)CO)O7)[C@H](O)[C@H](O)[C@H]6O)[C@H](O)[C@H]5NC(C)=O)[C@@H]4O)[C@H](O)[C@H]3NC(C)=O)[C@H](O)[C@H]2NC(C)=O)NC(=O)CO[C@@H]2O[C@H](CO)[C@@H](O[C@@H]3O[C@H](CO)[C@@H](O[C@@H]4O[C@H](CO[C@H]5O[C@H](CO)[C@@H](O)[C@H](O)[C@@H]5O[C@@H]5O[C@H](CO)[C@@H](O[C@@H]6O[C@H](CO[C@]7(C(=O)O)C[C@H](O)[C@@H](NC(C)=O)[C@H]([C@H](O)[C@H](O)CO)O7)[C@H](O)[C@H](O)[C@H]6O)[C@H](O)[C@H]5NC(C)=O)[C@@H](O)[C@H](O[C@H]5O[C@H](CO)[C@@H](O)[C@H](O)[C@@H]5O[C@@H]5O[C@H](CO)[C@@H](O[C@@H]6O[C@H](CO[C@]7(C(=O)O)C[C@H](O)[C@@H](NC(C)=O)[C@H]([C@H](O)[C@H](O)CO)O7)[C@H](O)[C@H](O)[C@H]6O)[C@H](O)[C@H]5NC(C)=O)[C@@H]4O)[C@H](O)[C@H]3NC(C)=O)[C@H](O)[C@H]2NC(C)=O)CSSC[C@@H](C(=O)N[C@@H](CC(N)=O)C(=O)N[C@@H](CO)C(=O)N[C@@H](Cc2ccccc2)C(=O)N[C@@H](CCCNC(=N)N)C(=O)N[C@@H](Cc2ccc(O)cc2)C(=O)O)NC(=O)CNC(=O)[C@H](CC(C)C)NC(=O)CNC(=O)[C@H](CO)NC(=O)[C@H](CCC(N)=O)NC(=O)[C@H](C)NC(=O)CNC1=O [Compound 2-13, SG-(SG-)Asn-PEG(3)-hANP(1-28)]
- Maximum time of detection after administration [1]: 3 h
- EC50 (human GC-A): 0.34 nM

SMILES: CC[C@H](C)[C@@H]1NC(=O)[C@H](CCCNC(=N)N)NC(=O)[C@H](CC(=O)O)NC(=O)[C@H](CCSC)NC(=O)[C@H](CCCNC(=N)N)NC(=O)CNC(=O)CNC(=O)[C@H](Cc2ccccc2)NC(=O)[C@@H](NC(=O)[C@H](CO)NC(=O)[C@H](CO)NC(=O)[C@H](CCCNC(=N)N)NC(=O)[C@H](CCCNC(=N)N)NC(=O)[C@H](CC(C)C)NC(=O)[C@H](CO)NC(=O)[C@H](CC(=O)N[C@@H]2O[C@H](CO)[C@@H](O[C@@H]3O[C@H](CO)[C@@H](O[C@@H]4O[C@H](CO[C@H]5O[C@H](CO)[C@@H](O)[C@H](O)[C@@H]5O[C@@H]5O[C@H](CO)[C@@H](O[C@@H]6O[C@H](CO[C@]7(C(=O)O)C[C@H](O)[C@@H](NC(C)=O)[C@H]([C@H](O)[C@H](O)CO)O7)[C@H](O)[C@H](O)[C@H]6O)[C@H](O)[C@H]5NC(C)=O)[C@@H](O)[C@H](O[C@H]5O[C@H](CO)[C@@H](O)[C@H](O)[C@@H]5O[C@@H]5O[C@H](CO)[C@@H](O[C@@H]6O[C@H](CO[C@]7(C(=O)O)C[C@H](O)[C@@H](NC(C)=O)[C@H]([C@H](O)[C@H](O)CO)O7)[C@H](O)[C@H](O)[C@H]6O)[C@H](O)[C@H]5NC(C)=O)[C@@H]4O)[C@H](O)[C@H]3NC(C)=O)[C@H](O)[C@H]2NC(C)=O)NC(=O)CCOCCOCCOCCOCCNC(=O)CO[C@@H]2O[C@H](CO)[C@@H](O[C@@H]3O[C@H](CO)[C@@H](O[C@@H]4O[C@H](CO[C@H]5O[C@H](CO)[C@@H](O)[C@H](O)[C@@H]5O[C@@H]5O[C@H](CO)[C@@H](O[C@@H]6O[C@H](CO[C@]7(C(=O)O)C[C@H](O)[C@@H](NC(C)=O)[C@H]([C@H](O)[C@H](O)CO)O7)[C@H](O)[C@H](O)[C@H]6O)[C@H](O)[C@H]5NC(C)=O)[C@@H](O)[C@H](O[C@H]5O[C@H](CO)[C@@H](O)[C@H](O)[C@@H]5O[C@@H]5O[C@H](CO)[C@@H](O[C@@H]6O[C@H](CO[C@]7(C(=O)O)C[C@H](O)[C@@H](NC(C)=O)[C@H]([C@H](O)[C@H](O)CO)O7)[C@H](O)[C@H](O)[C@H]6O)[C@H](O)[C@H]5NC(C)=O)[C@@H]4O)[C@H](O)[C@H]3NC(C)=O)[C@H](O)[C@H]2NC(C)=O)CSSC[C@@H](C(=O)N[C@@H](CC(N)=O)C(=O)N[C@@H](CO)C(=O)N[C@@H](Cc2ccccc2)C(=O)N[C@@H](CCCNC(=N)N)C(=O)N[C@@H](Cc2ccc(O)cc2)C(=O)O)NC(=O)CNC(=O)[C@H](CC(C)C)NC(=O)CNC(=O)[C@H](CO)NC(=O)[C@H](CCC(N)=O)NC(=O)[C@H](C)NC(=O)CNC1=O [Compound 2-16, SG-PEG(3)-(SG-)Asn-hANP(1-28)]
- Maximum time of detection after administration [1]: 2 h
- EC50 (human GC-A): 0.98 nM
